{"source": "patent US20200297760A1", "about": "(JUNO THERAPEUTICS, published 2020)", "binders": {"B1": {"name": "WVKRGRKKL (peptide)", "peptide": "WVKRGRKKL", "notes": "synthetic 9-mer of the CD28-4-1BB junction; mutation: none"}, "B2": {"name": "WVHRGRKKL (peptide)", "peptide": "WVHRGRKKL", "notes": "synthetic 9-mer variant; the entry already carries the change"}, "B3": {"name": "WVKRGLKKL (peptide)", "peptide": "WVKRGLKKL", "notes": "as for B2"}, "B4": {"name": "WVKRGRKKS (peptide)", "peptide": "WVKRGRKKS", "notes": "as for B2"}, "B5": {"name": "WVLRGRKKL (peptide)", "peptide": "WVLRGRKKL", "notes": "as for B2"}, "B6": {"name": "WVQRGAKKL (peptide)", "peptide": "WVQRGAKKL", "notes": "synthetic 9-mer variant; the entry already carries the changes"}, "B7": {"name": "WVQRGSKKL (peptide)", "peptide": "WVQRGSKKL", "notes": "as for B6"}, "B8": {"name": "WVSRGRKKL (peptide)", "peptide": "WVSRGRKKL", "notes": "as for B2"}, "B9": {"name": "Synthetic peptide WVKRGRKKA (L34A) (peptide)", "peptide": "WVKRGRKKA", "notes": "Synthetic 9-mer variant of the CD28 transmembrane / 4-1BB costimulatory junction region"}, "B10": {"name": "FIIFWVKRG (peptide)", "peptide": "FIIFWVKRG", "notes": "as for B1"}, "B11": {"name": "FIIFWVLRG (peptide)", "peptide": "FIIFWVLRG", "notes": "as for B2"}, "B12": {"name": "FIIFWVQRG (peptide)", "peptide": "FIIFWVQRG", "notes": "as for B2"}, "B13": {"name": "FIIFWVSRG (peptide)", "peptide": "FIIFWVSRG", "notes": "as for B2"}, "B14": {"name": "VAFIIFWVA (peptide)", "peptide": "VAFIIFWVA", "notes": "as for B2"}, "B15": {"name": "VAFIIFWVH (peptide)", "peptide": "VAFIIFWVH", "notes": "as for B2"}, "B16": {"name": "VAFIIFWVL (peptide)", "peptide": "VAFIIFWVL", "notes": "as for B2"}, "B17": {"name": "VAFIIFWVQ (peptide)", "peptide": "VAFIIFWVQ", "notes": "as for B2"}, "B18": {"name": "AFIIFWVKR (peptide)", "peptide": "AFIIFWVKR", "notes": "as for B1"}, "B19": {"name": "AFIIFWVLR (peptide)", "peptide": "AFIIFWVLR", "notes": "as for B2"}, "B20": {"name": "AFIIFWVQR (peptide)", "peptide": "AFIIFWVQR", "notes": "as for B2"}, "B21": {"name": "WVKRGRKKA synthetic peptide L34A (SEQ ID NO: 90) (peptide)", "peptide": "WVKRGRKKA", "notes": "Synthetic 9-mer from the CD28 transmembrane / 4-1BB costimulatory junction region of a CAR"}, "B22": {"name": "WVQRGNKKS synthetic peptide K28Q/L34S (SEQ ID NO: 91) (peptide)", "peptide": "WVQRGNKKS", "modifications": "not fully specified", "notes": "Synthetic 9-mer from the CD28/4-1BB junction region"}, "B23": {"name": "WVQRGNKKA synthetic peptide K28Q/L34A (SEQ ID NO: 92) (peptide)", "peptide": "WVQRGNKKA", "modifications": "not fully specified", "notes": "as for B22"}, "B24": {"name": "AFIIFWVRR synthetic peptide K28R (SEQ ID NO: 101) (peptide)", "peptide": "AFIIFWVRR", "notes": "as for B22"}}, "key": {"HLA-A*02:01": {"target": "T1, HLA-A*02:01 (human)", "T1 construct": "recombinant MHC class I molecule incubated with the synthetic peptide (REVEAL, ProImmune)", "assay": "REVEAL MHC-peptide binding assay, recombinant HLA", "description": "(§1) Specifically, assessment was of a series of overlapping 9-mer peptides derived from the sequence […] (set forth in SEQ ID NO: 7), which contains a portion of the CD28 transmembrane domain and 4-1BB costimulatory domain spanning the junction between the domains (bond joining the two amino acids noted in underline). In addition, a series of overlapping 9-mer peptides of each of a number of different variants of this portion also were assessed, each variant containing a mutation or mutations in this region as described in Example 2.\n(§2) The various 9-mer overlapping peptides were synthesized and their purity tested by MALDI-TOF Mass Spectrometry."}, "HLA-A*03:01": {"target": "T2, HLA-A*03:01 (human)", "T2 construct": "recombinant MHC class I molecule incubated with the synthetic peptide (REVEAL, ProImmune)", "assay": "REVEAL MHC-peptide binding assay, recombinant HLA", "description": "as §1, §2"}, "[1]": {"target": "T3, HLA-A*03:01 (recombinant MHC class I molecule) (human)", "T3 construct": "Recombinant MHC used in the ProImmune REVEAL assay", "assay": "REVEAL MHC-peptide binding assay, recombinant MHC, score normalised to positive control = 100", "description": "as §1, §2"}, "[2]": {"target": "T4, HLA-A*02:01 (recombinant MHC class I molecule) (human)", "T4 construct": "Recombinant MHC used in the ProImmune REVEAL assay; also called HLA-A2:01", "assay": "REVEAL MHC-peptide binding assay, recombinant MHC, score normalised to positive control = 100", "description": "as §1, §2"}, "[3]": {"target": "T5, HLA-B*08:01 (recombinant MHC class I molecule) (human)", "T5 construct": "Recombinant MHC molecule of the ProImmune REVEAL assay", "assay": "REVEAL MHC-peptide binding assay, stabilisation of ternary complex with recombinant MHC", "description": "as §1, §2"}, "[4]": {"target": "T6, HLA-A*11:01 (recombinant MHC class I molecule) (human)", "T6 construct": "Recombinant MHC molecule of the ProImmune REVEAL assay", "assay": "REVEAL MHC-peptide binding assay, stabilisation of ternary complex with recombinant MHC", "description": "as §1, §2"}}, "note": "No end group written: not given here.", "data": [{"binder": "B1", "values": [{"measurement": "In Vitro Score", "setting": "HLA-A*02:01", "value": "1.4 % of positive control peptide"}, {"measurement": "In Vitro Score", "setting": "HLA-A*03:01", "value": "13.1 % of positive control peptide"}]}, {"binder": "B2", "values": [{"measurement": "In Vitro Score", "setting": "HLA-A*02:01", "value": "1.6 % of positive control peptide"}, {"measurement": "In Vitro Score", "setting": "HLA-A*03:01", "value": "3.4 % of positive control peptide"}]}, {"binder": "B3", "values": [{"measurement": "In Vitro Score", "setting": "HLA-A*02:01", "value": "24.5 % of positive control peptide"}, {"measurement": "In Vitro Score", "setting": "HLA-A*03:01", "value": "10 % of positive control peptide"}]}, {"binder": "B4", "values": [{"measurement": "In Vitro Score", "setting": "HLA-A*02:01", "value": "3.9 % of positive control peptide"}, {"measurement": "In Vitro Score", "setting": "HLA-A*03:01", "value": "0.9 % of positive control peptide"}]}, {"binder": "B5", "values": [{"measurement": "In Vitro Score", "setting": "HLA-A*02:01", "value": "2.4 % of positive control peptide"}, {"measurement": "In Vitro Score", "setting": "HLA-A*03:01", "value": "0.7 % of positive control peptide"}]}, {"binder": "B6", "values": [{"measurement": "In Vitro Score", "setting": "HLA-A*02:01", "value": "3 % of positive control peptide"}, {"measurement": "In Vitro Score", "setting": "HLA-A*03:01", "value": "2 % of positive control peptide"}]}, {"binder": "B7", "values": [{"measurement": "In Vitro Score", "setting": "HLA-A*02:01", "value": "4.4 % of positive control peptide"}, {"measurement": "In Vitro Score", "setting": "HLA-A*03:01", "value": "1.2 % of positive control peptide"}]}, {"binder": "B8", "values": [{"measurement": "In Vitro Score", "setting": "HLA-A*02:01", "value": "2.3 % of positive control peptide"}, {"measurement": "In Vitro Score", "setting": "HLA-A*03:01", "value": "2.1 % of positive control peptide"}]}, {"binder": "B9", "values": [{"measurement": "In Vitro Score", "setting": "[1]", "value": "0.9 % of positive control peptide"}, {"measurement": "In Vitro Score", "setting": "[2]", "value": "4.5 % of positive control peptide"}]}, {"binder": "WVQRGNKKS (not fully specified, Synthetic 9-mer junction variant)", "note": "[Synthetic peptide WVQRGNKKS (K28Q/L34S as labelled)]", "values": [{"measurement": "In Vitro Score", "setting": "[1]", "value": "0.7 % of positive control peptide"}, {"measurement": "In Vitro Score", "setting": "[2]", "value": "1.2 % of positive control peptide"}]}, {"binder": "WVQRGNKKA (not fully specified, Synthetic 9-mer junction variant)", "note": "[Synthetic peptide WVQRGNKKA (K28Q/L34A as labelled)]", "values": [{"measurement": "In Vitro Score", "setting": "[1]", "value": "1.2 % of positive control peptide"}, {"measurement": "In Vitro Score", "setting": "[2]", "value": "1.9 % of positive control peptide"}]}, {"binder": "AFIIFWVRR (Synthetic 9-mer junction variant)", "note": "[Synthetic peptide AFIIFWVRR (K28R)]", "values": [{"measurement": "In Vitro Score", "setting": "[2]", "value": "1.4 % of positive control peptide"}]}, {"binder": "B10", "values": [{"measurement": "In Vitro Score", "setting": "HLA-A*02:01", "value": "10.1 % of positive control peptide"}, {"measurement": "In Vitro Score", "setting": "HLA-A*03:01", "value": "1.4 % of positive control peptide"}]}, {"binder": "B11", "values": [{"measurement": "In Vitro Score", "setting": "HLA-A*02:01", "value": "7.2 % of positive control peptide"}, {"measurement": "In Vitro Score", "setting": "HLA-A*03:01", "value": "0.1 % of positive control peptide"}]}, {"binder": "B12", "values": [{"measurement": "In Vitro Score", "setting": "HLA-A*02:01", "value": "16.8 % of positive control peptide"}, {"measurement": "In Vitro Score", "setting": "HLA-A*03:01", "value": "0.4 % of positive control peptide"}]}, {"binder": "B13", "values": [{"measurement": "In Vitro Score", "setting": "HLA-A*02:01", "value": "0.2 % of positive control peptide"}, {"measurement": "In Vitro Score", "setting": "HLA-A*03:01", "value": "0.1 % of positive control peptide"}]}, {"binder": "B14", "values": [{"measurement": "In Vitro Score", "setting": "HLA-A*02:01", "value": "28.5 % of positive control peptide"}, {"measurement": "In Vitro Score", "setting": "HLA-A*03:01", "value": "0 % of positive control peptide"}]}, {"binder": "B15", "values": [{"measurement": "In Vitro Score", "setting": "HLA-A*02:01", "value": "3.1 % of positive control peptide"}, {"measurement": "In Vitro Score", "setting": "HLA-A*03:01", "value": "0.3 % of positive control peptide"}]}, {"binder": "B16", "values": [{"measurement": "In Vitro Score", "setting": "HLA-A*02:01", "value": "0.2 % of positive control peptide"}, {"measurement": "In Vitro Score", "setting": "HLA-A*03:01", "value": "0 % of positive control peptide"}]}, {"binder": "B17", "values": [{"measurement": "In Vitro Score", "setting": "HLA-A*02:01", "value": "5.3 % of positive control peptide"}, {"measurement": "In Vitro Score", "setting": "HLA-A*03:01", "value": "0.2 % of positive control peptide"}]}, {"binder": "B18", "values": [{"measurement": "In Vitro Score", "setting": "HLA-A*02:01", "value": "0.5 % of positive control peptide"}, {"measurement": "In Vitro Score", "setting": "HLA-A*03:01", "value": "5.7 % of positive control peptide"}]}, {"binder": "B19", "values": [{"measurement": "In Vitro Score", "setting": "HLA-A*02:01", "value": "5.7 % of positive control peptide"}, {"measurement": "In Vitro Score", "setting": "HLA-A*03:01", "value": "0.3 % of positive control peptide"}]}, {"binder": "B20", "values": [{"measurement": "In Vitro Score", "setting": "HLA-A*02:01", "value": "0.4 % of positive control peptide"}, {"measurement": "In Vitro Score", "setting": "HLA-A*03:01", "value": "0.2 % of positive control peptide"}]}, {"binder": "B21", "values": [{"measurement": "In Vitro Score", "setting": "[3]", "value": "3.1 % of positive control peptide"}, {"measurement": "In Vitro Score", "setting": "[4]", "value": "3.1 % of positive control peptide"}]}, {"binder": "B22", "values": [{"measurement": "In Vitro Score", "setting": "[3]", "value": "0 % of positive control peptide"}, {"measurement": "In Vitro Score", "setting": "[4]", "value": "5 % of positive control peptide"}]}, {"binder": "B23", "values": [{"measurement": "In Vitro Score", "setting": "[3]", "value": "0.7 % of positive control peptide"}, {"measurement": "In Vitro Score", "setting": "[4]", "value": "0.8 % of positive control peptide"}]}, {"binder": "B24", "values": [{"measurement": "In Vitro Score", "setting": "[3]", "value": "0.3 % of positive control peptide"}, {"measurement": "In Vitro Score", "setting": "[4]", "value": "1.5 % of positive control peptide"}]}]}
